The target of assay [1] is T1, human Protein S (human, UniProt P07225 42-676).
T1 construct: Called 'full length Protein S' / 'human full-length Protein S'; It was coated on plates (ELISA), Eu-labeled (LANCE) or immobilized on a chip (Biacore); also called PS; full length Protein S
T1 sequence: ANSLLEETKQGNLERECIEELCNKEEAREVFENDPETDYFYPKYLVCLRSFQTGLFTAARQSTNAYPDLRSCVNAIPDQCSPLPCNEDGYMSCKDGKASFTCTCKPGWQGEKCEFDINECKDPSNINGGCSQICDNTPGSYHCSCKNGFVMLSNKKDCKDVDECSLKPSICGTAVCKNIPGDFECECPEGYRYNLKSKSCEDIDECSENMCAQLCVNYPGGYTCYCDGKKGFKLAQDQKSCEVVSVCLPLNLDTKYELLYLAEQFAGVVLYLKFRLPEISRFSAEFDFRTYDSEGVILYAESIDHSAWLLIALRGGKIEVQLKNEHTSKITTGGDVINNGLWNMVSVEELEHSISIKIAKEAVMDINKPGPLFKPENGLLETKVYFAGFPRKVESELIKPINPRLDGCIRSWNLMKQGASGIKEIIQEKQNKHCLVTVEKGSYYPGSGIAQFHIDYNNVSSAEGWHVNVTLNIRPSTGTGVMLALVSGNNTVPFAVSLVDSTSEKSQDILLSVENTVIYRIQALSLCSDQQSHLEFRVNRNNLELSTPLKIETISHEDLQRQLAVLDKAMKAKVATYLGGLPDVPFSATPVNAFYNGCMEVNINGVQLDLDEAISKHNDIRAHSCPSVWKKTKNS
The assay can be described thus: Biacore (SPR), Protein S immobilized. In a few lines: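 Human full-length Protein S was immobilized at 1000 RU on a […] chip in a Biacore 3000 or Biacore T200 instrument. Peptides at various concentrations in HBS-buffer containing 3 mM CaCl₂ and 1% DMSO were injected over the surface, and the chip was regenerated with 4 M MgCl₂ in HBS-buffer. Binding kinetics were determined by surface plasmon resonance: kon and koff were obtained by fitting sensorgrams to a Langmuir binding model, and Kd was calculated from these rate constants.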

In assay [2] the target is T1, human Protein S. Briefly: cell-based or functional assay.
The target in a further assay is T2, human GAS6 (human, UniProt Q14393 49-678, limits assumed).
T2 construct: Immobilized on the Biacore chip; also called protein encoded by the Growth Arrest Specific-6 gene; anti-target
T2 sequence (looked up): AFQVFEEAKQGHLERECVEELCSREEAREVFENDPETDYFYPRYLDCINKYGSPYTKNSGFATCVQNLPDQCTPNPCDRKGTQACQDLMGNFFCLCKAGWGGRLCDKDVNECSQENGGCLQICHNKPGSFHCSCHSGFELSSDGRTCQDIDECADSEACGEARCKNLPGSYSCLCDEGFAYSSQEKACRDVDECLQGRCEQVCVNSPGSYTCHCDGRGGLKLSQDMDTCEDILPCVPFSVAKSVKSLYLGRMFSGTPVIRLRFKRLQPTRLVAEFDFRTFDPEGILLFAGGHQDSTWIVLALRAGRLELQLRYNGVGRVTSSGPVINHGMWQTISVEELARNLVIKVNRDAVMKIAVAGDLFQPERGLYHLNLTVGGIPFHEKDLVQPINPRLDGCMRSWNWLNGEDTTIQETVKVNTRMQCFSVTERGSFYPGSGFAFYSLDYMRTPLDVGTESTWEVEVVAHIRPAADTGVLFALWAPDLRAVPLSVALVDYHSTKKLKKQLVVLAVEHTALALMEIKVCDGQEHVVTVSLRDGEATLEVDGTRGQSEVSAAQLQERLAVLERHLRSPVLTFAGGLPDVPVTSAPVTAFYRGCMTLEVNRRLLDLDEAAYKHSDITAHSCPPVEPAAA
Briefly: method not restated (Biacore in Example 3). In a few lines: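 Binding to the anti-target human GAS6 was tested by surface plasmon resonance (Biacore), with 1000 RU GAS6 immobilized on a […] chip. Peptides were injected at various concentrations in HBS-buffer with 3 mM CaCl₂ and 1% DMSO, and the chip was regenerated with 4 M MgCl₂. Kinetic fitting of the GAS6 signals was error prone, so sensorgrams were reviewed visually to estimate anti-target binding.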
On the technique in general: SPR reads the build-up and loss of mass on a sensor chip optically.

The target in assay [3] is T3, human Protein S (UniProt P07225 42-676).
T3 chain: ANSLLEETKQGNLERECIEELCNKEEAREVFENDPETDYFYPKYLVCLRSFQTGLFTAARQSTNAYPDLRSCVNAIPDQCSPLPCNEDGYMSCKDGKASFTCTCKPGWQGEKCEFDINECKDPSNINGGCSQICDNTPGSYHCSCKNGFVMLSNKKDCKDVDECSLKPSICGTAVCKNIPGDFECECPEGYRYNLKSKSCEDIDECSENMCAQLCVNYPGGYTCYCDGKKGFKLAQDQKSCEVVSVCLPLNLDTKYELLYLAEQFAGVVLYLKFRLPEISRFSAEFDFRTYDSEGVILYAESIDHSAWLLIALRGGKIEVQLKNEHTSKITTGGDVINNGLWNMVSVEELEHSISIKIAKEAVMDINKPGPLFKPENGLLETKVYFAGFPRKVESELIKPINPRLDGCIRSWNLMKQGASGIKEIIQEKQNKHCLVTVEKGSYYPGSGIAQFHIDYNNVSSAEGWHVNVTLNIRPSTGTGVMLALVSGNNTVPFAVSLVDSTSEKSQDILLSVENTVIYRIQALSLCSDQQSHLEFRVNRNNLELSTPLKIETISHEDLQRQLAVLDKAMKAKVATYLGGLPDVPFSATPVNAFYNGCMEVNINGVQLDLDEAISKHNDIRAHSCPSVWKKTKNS
Briefly: LANCE competition. The essentials:
(§1)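 A homogeneous time-resolved FRET (LANCE) competition format paired europium-labelled Protein S and ULight-labelled streptavidin with a biotinylated tracer peptide, against which unlabelled test peptide was titrated three-fold. With final concentrations of 10 nM Protein S, 100 nM streptavidin and 300 nM tracer in 50 µl, or 2 nM Protein S and 60 nM tracer when a Tecan F500 was used, samples stood 1 hour at room temperature. Emission was read at 665 nm with excitation at 340 nm. Non-linear regression of these signals gave the IC50.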

The target in assay [4] is T3, human Protein S. Briefly: LANCE competition. In a few lines:
as §1
In general terms: In TR-FRET formats the signal depends on donor and acceptor labels being close together.

Assay [5] addresses T1, human Protein S. Briefly: LANCE TR-FRET; peptide added to preformed C4BP/Protein S complex; competitor C4BP. The method, then:
To investigate the effect of the peptides described herein on PS/C4BP complexes, a LANCE IC50 assay was established using methods similar to those described above. JBS2572 or JBS3216 was added to a preformed C4BP/PS complex. Changes in the complex concentration were followed by recording the TR-FRET signal. For both peptides, a time- and concentration-dependent dissociation of the C4BP/PS complex was observed. […] The time-dependency of the complex reduction was similar for both peptides. After two hours of incubation in the presence of 100 nM JBS2572 or JBS3216, the C4BP/PS complex was reduced to 60% and 50%, respectively. In addition, binding of biotinylated JBS2572 to Protein S was inhibited by C4BP in the LANCE IC50 assay. Pull-down experiments where JBS2697 was coupled to streptavidin sepharose and incubated for one hour at room temperature with (a) Protein S (1.6 pmol) (b) C4BP (8.5 pmol) and (c) Protein S (1.6 pmol)+C4BP (8.5 pmol) supported the results from the modified LANCE IC50 assay. JBS2697 interacted with free Protein S only from experiment (a) with Protein S alone and from experiment (c) with the C4BP-Protein S mixture.

Where two headings read alike, the source gives them in different places. Non-standard residues stand in square brackets, D forms with d. 400Mal‑PEG = 40 kD PEG moiety attached via maleimide; Cys(Me-400MA) = not defined here Where only a bound is given, the exact number is not on record here.

B1: JBS3318 (peptide)
peptide: Ac-EYYVSAGWYDYNTDTYYEFEC(400Mal‑PEG)-NH2
notes: JBS3319 conjugated to a 40 kD PEG moiety
The term Kd denotes the free concentration of one partner at which half of the binding sites on the other are occupied at equilibrium, for simple one-to-one binding. A lower Kd goes with tighter binding. For orientation: koff means a measure of how fast the partners let go of each other. A higher koff goes with a short-lived complex. What is called kon is a measure of how fast the partners come together. Read a high kon as faster complex formation. By IC50 is commonly meant the concentration that inhibits the measured activity by half. A high value points to a need for much substance. In the assay with human Protein S [1], B1 came in with a Kd of 1.4 nM, an off-rate (koff) of 0.000213 s⁻¹ and a kon of 152000 M⁻¹ s⁻¹. Further, in the assay with human Protein S [2], the “CAT EC50, plasmas from three individuals with severe hemophilia A” value (“CAT EC50, plasmas from three individuals” below) is less than 100 nM. For the same molecule, the binding result in the assay with human GAS6 is on record as “no binding (tested: 1 µM)”. The molecule further yielded an IC50 with human Protein S [3] of 2.8 nM.

B2: JBS3179 (peptide)
peptide: Ac-TGLVSAGWYDYNFDHYREFTC-NH2
modifications: not fully specified (residue 21); also: tetramer: four peptides on a 40 kD four-arm PEG core
Take B2: the IC50 with human Protein S [4] was 8 nM. In the assay with human Protein S [1], the Kd is 0.4 nM, the koff turned out to be 0.000179 s⁻¹ and the kon stood at 410000 M⁻¹ s⁻¹. Also, in the assay with human Protein S [2], the “CAT EC50” value worked out at 6 nM and the “CAT EC50, plasmas from three individuals” value was less than 100 nM. Also, in the assay with human GAS6, the binding result is given as “no binding (tested: 1 µM)”.

B3: JBS3322 (peptide)
peptide: Ac-EYIVTAGWYDYNKDIYYEFK[Cys(Me-400MA)]-NH2
modifications: reading uncertain
notes: JBS3206 monomer comprising a 40 kD PEG moiety
In the assay with human Protein S [1], B3 gave a Kd of 3.6 nM, a dissociation rate constant (koff) of 0.000278 s⁻¹ and a kon of 78000 M⁻¹ s⁻¹. The “CAT EC50, plasmas from three individuals” value with human Protein S [2] was less than 100 nM. Further, in the assay with human GAS6, the binding result was “no binding (tested: 1 µM)”. Besides, in the assay with human Protein S [3], the IC50 turned out to be 4.5 nM.

B4: JBS3216 (peptide)
peptide: Ac-EYYVSAGWYDYNTDTYYEFE-NH2
Consider B4, for which the half-maximal inhibitory concentration (IC50) with human Protein S [4] worked out at 0.7 nM. In the assay with human Protein S [1], this molecule had a Kd of 0.2 nM, a koff of 0.000233 s⁻¹ and a kon of 1.14e+06 M⁻¹ s⁻¹. Further, the “CAT EC50, human hemophilia A patient plasma” value in the assay with human Protein S [2] came to 85 nM. Also, in the assay with human Protein S [5], the IC50 amounted to 0.3 nM.

Source of the values: US20150246947A1 (BAXALTA, published 2015).
